# Test results reported in patent US20210380675A1 (Kyowa Kirin, published 2021).
# T1: human IL-36γ, truncated (human, UniProt Q9NZH8 18-169)
# T1 construct: Bought from R&D Systems (cat 6835-IL); also called human IL-36 gamma; hIL-36gamma
# T1 sequence: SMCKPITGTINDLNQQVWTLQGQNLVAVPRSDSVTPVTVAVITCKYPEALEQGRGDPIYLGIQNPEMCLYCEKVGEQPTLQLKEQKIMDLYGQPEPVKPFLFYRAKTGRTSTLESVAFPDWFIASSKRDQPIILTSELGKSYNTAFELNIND
# T2: cynomolgus IL-36α, truncated (cynomolgus macaque (Macaca fascicularis), UniProt Q9UHA7 14-158 (human entry), limits assumed)
# T2 construct: Untagged after removal of the His-SUMO tag; also called cynomolgus IL-36 alpha; cyIL-36alpha
# T2 chain: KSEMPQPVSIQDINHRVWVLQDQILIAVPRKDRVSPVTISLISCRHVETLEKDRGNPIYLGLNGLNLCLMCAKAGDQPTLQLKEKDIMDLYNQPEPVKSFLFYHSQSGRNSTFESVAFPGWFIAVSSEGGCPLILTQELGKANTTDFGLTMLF
# T3: human IL-36α(R12), truncated (human, UniProt Q9UHA7 6-158)
# T3 construct: Untagged after removal of the His-SUMO tag; also called hIL-36alpha
# T3 chain: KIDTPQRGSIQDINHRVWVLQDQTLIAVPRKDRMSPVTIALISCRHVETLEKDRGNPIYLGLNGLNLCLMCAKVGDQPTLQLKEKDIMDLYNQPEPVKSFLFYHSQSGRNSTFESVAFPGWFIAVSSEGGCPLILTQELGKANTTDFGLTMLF
# T4: cynomolgus IL-36γ, truncated (cynomolgus macaque (Macaca fascicularis), UniProt Q9NZH8 18-167 (human entry), limits assumed)
# T4 construct: Untagged after removal of the His-SUMO tag; also called cynomolgus IL-36 gamma; cyIL-36gamma
# T4 chain: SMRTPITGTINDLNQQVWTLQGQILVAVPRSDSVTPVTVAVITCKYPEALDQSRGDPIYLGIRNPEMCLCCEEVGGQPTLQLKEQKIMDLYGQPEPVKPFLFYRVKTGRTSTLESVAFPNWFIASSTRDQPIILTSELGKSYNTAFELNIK
# T5: human IL-36α (R&D Systems cat#6995-IL-010/CF) (human, UniProt Q9UHA7 6-158)
# T5 sequence (looked up): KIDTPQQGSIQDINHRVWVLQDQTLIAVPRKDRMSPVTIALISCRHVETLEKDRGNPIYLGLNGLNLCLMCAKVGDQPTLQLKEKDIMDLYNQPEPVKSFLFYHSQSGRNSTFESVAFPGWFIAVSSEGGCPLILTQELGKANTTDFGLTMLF
# What was measured:
# human IL-36γ, truncated [1] = molecular target: T1, human IL-36γ, truncated; test: SPR, Biacore, 1:1 Langmuir fit
# Method: (§1) The humanized antibodies obtained in Example 6 were tested for their binding to recombinant human or cynomolgus macaque IL36a and IL-36γ in Biacore assays. The association time was set to 60 seconds, and the final dissociation time was set to 600 seconds. Equilibrium dissociation constant KD (kd/ka) of exemplary antibodies was determined using a 1:1 Langmuir fit model (see Tables 17-18 below).
# [2] = molecular target: T2, cynomolgus IL-36α, truncated; test: SPR, Biacore, 1:1 Langmuir fit
# Method: as §1
# [3] = molecular target: T3, human IL-36α(R12), truncated; test: SPR, Biacore, 1:1 Langmuir fit
# Method: as §1
# [4] = molecular target: T4, cynomolgus IL-36γ, truncated; test: SPR, Biacore, 1:1 Langmuir fit
# Method: as §1
# [5] = molecular target: T5, human IL-36α (R&D Systems …); test: cell-based or functional assay
# human IL-36γ, truncated [6] = molecular target: T1, human IL-36γ, truncated; test: cell-based or functional assay
# human IL-36γ, truncated [7] = molecular target: T1, human IL-36γ, truncated; test: SPR, Biacore, 1:1 Langmuir fit; heads of c3 and c4 printed swapped
# Method: as §1
# [8] = molecular target: T2, cynomolgus IL-36α, truncated; test: as above
# Method: as §1
# [9] = molecular target: T3, human IL-36α(R12), truncated; test: as above
# Method: as §1
# [10] = molecular target: T4, cynomolgus IL-36γ, truncated; test: as above
# Method: as §1
# human IL-36γ, truncated [11] = molecular target: T1, human IL-36γ, truncated; test: cell-based or functional assay; remark: listed apart in the source
# [12] = molecular target: T3, human IL-36α(R12), truncated; test: cell-based or functional assay
# [13] = molecular target: T2, cynomolgus IL-36α, truncated; test: cell-based or functional assay
# [14] = molecular target: T3, human IL-36α(R12), truncated; test: cell-based or functional assay
# human IL-36γ, truncated [15] = molecular target: T1, human IL-36γ, truncated; test: cell-based or functional assay; remark: listed apart in the source
# [16] = molecular target: T4, cynomolgus IL-36γ, truncated; test: cell-based or functional assay
# human IL-36γ, truncated [17] = molecular target: T1, human IL-36γ, truncated; test: cell-based or functional assay; remark: listed apart in the source
# [18] = molecular target: T3, human IL-36α(R12), truncated; test: cell-based or functional assay
# human IL-36γ, truncated [19] = molecular target: T1, human IL-36γ, truncated; test: SPR, Biacore T200, antibody on chip, IL-36 as analyte, 1:1 Langmuir fit
# Method: (§2) Antibodies were further tested for their binding to recombinant human or cynomolgus IL36α, IL-36γ in Biacore assays. In order to kinetically analyze the binding activity of the IL-36α and IL-36γ dual antagonist antibodies, the binding activity to human and cynomolgus IL-36α and IL-36γ was measured by surface plasmon resonance method (SPR). All of the following manipulations were carried out using a Biacore T200 (GE Healthcare Life Sciences, Pittsburgh, Pa.).
# (§3) To determine antibody affinity to human and cynomolgus IL36, recombinant antibodies were immobilized on a CM5 sensor chip (cat# BR100012, GE Healthcare Life Sciences, Pittsburgh, Pa.) by an amine coupling chemistry. In particular, the kinetic assay was carried out by immobilizing on the chip approximately 2000 RU of recombinant antibody. Thereafter, recombinant human or cynomolgus IL36 proteins, serially diluted from a high concentration, were allowed to run at a flow rate of 30 μL/min onto the chip for 420 seconds. The dissociation time was 3600 seconds and the binding curves were measured at 25° C. Regeneration was performed with 10 mM glycine pH 1.5 for 30s. Alternatively, the analytes were injected with increasing concentrations in a single cycle, the surface not being regenerated between injections, using a method referred to as “single cycle kinetics.” In particular, either anti-human or anti-mouse Fc specific antibodies were immobilized on a CM5 sensor chip (cat# BR100012, GE Healthcare Life Sciences, Pittsburgh, Pa.) by an amine coupling chemistry. Thereafter, IL-36α and IL-36γ dual antagonist mouse/human chimeric or mouse antibodies were captured at approximately 200 RUs, followed by injections of increasing concentrations of recombinant human and cynomolgus IL36 proteins. The association time was 300 seconds, and the final dissociation time was 1200 seconds. At the end of the analyte injections, the surface was regenerated with either 3M MgCl₂ (anti-human Fc capture antibody) for 30 s or 10 mM glycine-HCl pH 1.7 for 180 s (anti-mouse IgG capture antibody).
# (§4) The raw data were double referenced by subtraction of the signals from a reference flow cell without immobilized ligand and a buffer blank. The sensorgram corresponding to each concentration was obtained.
# [20] = molecular target: T2, cynomolgus IL-36α, truncated; test: as above
# Method: as §2, §3, §4
# [21] = molecular target: T3, human IL-36α(R12), truncated; test: as above
# Method: as §2, §3, §4
# [22] = molecular target: T4, cynomolgus IL-36γ, truncated; test: as above
# Method: as §2, §3, §4
binder,measurement,setting,value
"144L249B LV9 HV11 (antibody, V domains shown, Humanized) VH: QVQLVQSGAEVKKPGASVKVSCKASGFNIKDTYIYWVRQAPGQGLEWIGRIDPAIGTTRYDPKFQGKATLTTDTSTNTAYLELSSLRSEDTAVYYCARYDYSGSSFYFDYWGQGTLVTVSS VL: QAVVTQEPSLTVSPGGTVTLTCRSSTGAVTTSNYANWVQEKPGQLFTGLIGGTNDRAPGVPARFSGSLLGGKAALTLSGAQPEDEADYFCALWYSNHLVFGGGTKLTVL",Kd,"human IL-36γ, truncated [1]",0.795 nM
same,Kd,[2],0.927 nM
same,Kd,[3],1.29 nM
same,Kd,[4],0.913 nM
same,"IC50 of IL-8 secretion (AlphaLISA), HaCaT, 10 nM human IL-36α",[5],7.68 nM
same,"IC50 of IL-8 secretion (AlphaLISA), HaCaT, 10 nM human IL-36γ","human IL-36γ, truncated [6]",16.5 nM
same,koff,"human IL-36γ, truncated [7]",0.000706 s⁻¹
same,kon,"human IL-36γ, truncated [7]",888000 M⁻¹ s⁻¹
same,koff,[8],0.00135 s⁻¹
same,kon,[8],1.46e+06 M⁻¹ s⁻¹
same,koff,[9],0.00102 s⁻¹
same,kon,[9],791000 M⁻¹ s⁻¹
same,koff,[10],0.000866 s⁻¹
same,kon,[10],948000 M⁻¹ s⁻¹
"144L249B LV7a HV11 (antibody, V domains shown, Humanized) VH: QVQLVQSGAEVKKPGASVKVSCKASGFNIKDTYIYWVRQAPGQGLEWIGRIDPAIGTTRYDPKFQGKATLTTDTSTNTAYLELSSLRSEDTAVYYCARYDYSGSSFYFDYWGQGTLVTVSS VL: QAVVTQEPSLTVSPGGTVTLTCRSSTGAVTTSNYANWVQQKPGQAFTGLIGGTNDRAPGVPARFSGSLLGGKAALTISGAQPEDEADYFCALWYSNHLVFGGGTKLTVL",Kd,"human IL-36γ, truncated [1]",0.789 nM
same,Kd,[2],1 nM
same,Kd,[3],1.37 nM
same,Kd,[4],0.91 nM
same,"IC50 of IL-8 secretion (AlphaLISA), HaCaT, 10 nM human IL-36α",[5],9.2 nM
same,"IC50 of IL-8 secretion (AlphaLISA), HaCaT, 10 nM human IL-36γ","human IL-36γ, truncated [6]",25.8 nM
same,koff,"human IL-36γ, truncated [7]",0.000678 s⁻¹
same,kon,"human IL-36γ, truncated [7]",859000 M⁻¹ s⁻¹
same,koff,[8],0.0014 s⁻¹
same,kon,[8],1.4e+06 M⁻¹ s⁻¹
same,koff,[9],0.00103 s⁻¹
same,kon,[9],749000 M⁻¹ s⁻¹
same,koff,[10],0.000831 s⁻¹
same,kon,[10],913000 M⁻¹ s⁻¹
"144L249B LV9 HV10b (antibody, V domains shown, Humanized) VH: QVQLVQSGAEVKKPGASVKVSCKASGFNIKDTYIYWVRQAPGQGLEWIGRIDPAIGTTRYDPKFQGKATLTTDTSTSTAYLELSSLRSEDTAVYYCARYDYSGSSFYFDYWGQGTLVTVSS VL: QAVVTQEPSLTVSPGGTVTLTCRSSTGAVTTSNYANWVQEKPGQLFTGLIGGTNDRAPGVPARFSGSLLGGKAALTLSGAQPEDEADYFCALWYSNHLVFGGGTKLTVL",Kd,"human IL-36γ, truncated [1]",0.942 nM
same,Kd,[2],0.944 nM
same,Kd,[3],1.39 nM
same,Kd,[4],1.13 nM
same,"IC50 of IL-8 secretion (AlphaLISA), HaCaT, 10 nM human IL-36α",[5],6.61 nM
same,"IC50 of IL-8 secretion (AlphaLISA), HaCaT, 10 nM human IL-36γ","human IL-36γ, truncated [6]",20.7 nM
same,koff,"human IL-36γ, truncated [7]",0.000728 s⁻¹
same,kon,"human IL-36γ, truncated [7]",772000 M⁻¹ s⁻¹
same,koff,[8],0.00126 s⁻¹
same,kon,[8],1.34e+06 M⁻¹ s⁻¹
same,koff,[9],0.000989 s⁻¹
same,kon,[9],714000 M⁻¹ s⁻¹
same,koff,[10],0.000969 s⁻¹
same,kon,[10],855000 M⁻¹ s⁻¹
"144L249B (antibody, V domains shown, Mouse monoclonal from hybridoma; mouse IgG heavy and lambda light chain; also called mouse antibody 144L249B) VH: EVQLQQSGAELVKPGASVKLSCTASGFNIKDTYIYWVKQRPEQGLEWIGRIDPAIGTTRYDPKFQGKATLTADTSSNTAFLQLSSLTSEDTAVYYCARYDYSGSSFYFDYWGRGTTLTVSS VL: QAVVTQESALTTSPGETVTLTCRSSTGAVTTSNYANWVQEKPDHLFTGLIGGTNNRAPGVPARFSGSLIGDKAALTITGAQTEDEAIYFCALWYSNHLVFGGGTKLTVL",Kd,"human IL-36γ, truncated [1]",0.399 nM
same,Kd,[2],1.16 nM
same,Kd,[3],1.53 nM
same,Kd,[4],0.288 nM
same,"IC50 of IL-8 secretion, primary human monocytes, 6 nM human IL-36γ, FIG. 5C","human IL-36γ, truncated [11]",12 nM
same,"IC50 of IL-8 secretion, primary human monocytes, 50 nM human IL-36γ, FIG. 5D","human IL-36γ, truncated [11]",38.7 nM
same,"IC50 of IL-8 secretion, primary human monocytes, 20 nM human IL-36α, FIG. 5A",[12],27.1 nM
same,"IC50 of IL-8 secretion, HaCaT, 10 nM cynomolgus IL-36α, FIG. 2B",[13],7.94 nM
same,"IC50 of IL-8 secretion, HaCaT, 10 nM human IL-36α, FIG. 1C",[14],14.5 nM
same,"IC50 of IL-8 secretion, HaCaT, 10 nM human IL-36γ, FIG. 1F","human IL-36γ, truncated [15]",9.81 nM
same,"IC50 of IL-8 secretion, HaCaT, 10 nM cynomolgus IL-36γ, FIG. 2D",[16],11.8 nM
same,"IC50 of IL-8 secretion, primary human keratinocytes, 8.4 nM human IL-36γ, FIG. 4C","human IL-36γ, truncated [17]",9.28 nM
same,"IC50 of IL-8 secretion, primary human keratinocytes, 6.25 nM human IL-36α, FIG. 4A",[18],13.8 nM
same,koff,"human IL-36γ, truncated [7]",0.000395 s⁻¹
same,kon,"human IL-36γ, truncated [7]",990000 M⁻¹ s⁻¹
same,koff,[8],0.00105 s⁻¹
same,kon,[8],905000 M⁻¹ s⁻¹
same,koff,[9],0.000785 s⁻¹
same,kon,[9],515000 M⁻¹ s⁻¹
same,koff,[10],0.000326 s⁻¹
same,kon,[10],1.13e+06 M⁻¹ s⁻¹
same,Kd,"human IL-36γ, truncated [19]",0.377 nM
same,koff,"human IL-36γ, truncated [19]",0.000194 s⁻¹
same,kon,"human IL-36γ, truncated [19]",516000 M⁻¹ s⁻¹
same,Kd,[20],1.28 nM
same,koff,[20],0.000839 s⁻¹
same,kon,[20],658000 M⁻¹ s⁻¹
same,Kd,[21],1.67 nM
same,koff,[21],0.000899 s⁻¹
same,kon,[21],539000 M⁻¹ s⁻¹
same,Kd,[22],0.312 nM
same,koff,[22],0.000197 s⁻¹
same,kon,[22],631000 M⁻¹ s⁻¹
